Measured values as given in US20050214822A1 (RUTGERS THE STATE UNIVERSITY OF NEW JERSEY, published 2005).

Biological target: T1, tau (rat, UniProt P19332-5 2-432, limits assumed)
T1 construct: Cytoskeletal protein used as a specificity control in the cypin immunoprecipitates
Assay: immunoprecipitation from rat brain extract with polyclonal anti-cypin antibody
Procedure: Cypin contains a region of homology to CRMP that binds directly to tubulin heterodimers (Akum et al., Nature Neurosci. 7:145 (2004)). To establish that cypin binds to tubulin, affinity chromatography was performed using a GST fusion of rat cypin immobilized on glutathione beads incubated with rat brain extract. The eluate was then assayed for the presence of tubulin. […] To assess whether this interaction occurs in vivo, rat brain extract was subjected to immunoprecipitation with preimmune serum or polyclonal antibody raised against cypin. Tubulin was found in the cypin immunoprecipitates (Id.). Very little tubulin was present when preimmune serum is used, representing nonspecific binding (Id.). Furthermore, no tau was detected in the cypin immunoprecipitates, supporting the idea that cypin binds specifically to tubulin and not all cytoskeletal proteins (Id.). In addition, cypin was found in tubulin immunoprecipitates.

T1 sequence (P19332 other isoform, or with tags, fused parts or gaps limits assumed): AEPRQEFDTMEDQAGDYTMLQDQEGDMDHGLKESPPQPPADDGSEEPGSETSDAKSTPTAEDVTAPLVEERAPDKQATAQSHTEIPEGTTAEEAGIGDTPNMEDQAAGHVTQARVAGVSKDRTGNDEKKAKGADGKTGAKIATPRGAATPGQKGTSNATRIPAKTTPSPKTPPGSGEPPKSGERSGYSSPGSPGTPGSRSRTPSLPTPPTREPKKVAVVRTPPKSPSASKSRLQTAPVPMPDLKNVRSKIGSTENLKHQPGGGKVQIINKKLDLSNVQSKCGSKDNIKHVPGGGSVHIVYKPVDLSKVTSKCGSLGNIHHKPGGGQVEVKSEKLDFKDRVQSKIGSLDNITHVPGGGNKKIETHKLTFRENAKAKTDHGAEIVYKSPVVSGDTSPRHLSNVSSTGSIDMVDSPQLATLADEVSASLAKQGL

- binding result: no binding
B1: cypin in rat brain extract (enzyme)
chain: MCAARTPQLALIFRGTFVHSTWTCPMEVLRDHLLGVSDSGKIVFLEESSQQEKLAKEWCFKPCEIRELSHHEFFMPGLVDTHIHAPQYAFAGSNVDLPLLDWLNKYTFPTEKRFQSTDVAEEVYTRVVRRTLKNGTTTACYFGTIHTDSSLILAEITDKFGQRAFVGKVCMDLNNTVPEYKETTEESVKETERFVSEMLQKNYSRVKPIVTPRFSLSCTETLMSELGNIAKTHDLYIQSHISENREEIEAVKSLYPGYKNYTDVYDKNNLLTNKTVMAHGCYLSEEELNVFSERGASIAHCPNSNLSLSSGLLNVLDVLKHKVKIGLGTDVAGGYSYSMLDAIRRAVMVSNVLLINKVNEKSLTLKEVFRLATLGGSQALGLDREIGNFEVGKDFDALLINPRASDSPIDLFCGDFVGDISEAVIQKFLYLGDDRNIEEVYVGGKQVVPFSSSV
notes: Endogenous cypin immunoprecipitated from rat brain extract with a polyclonal antibody raised against cypin; also called endogenous cypin
